Assay results as given in article PMC3897377, “Utilizing Nanobody Technology to Target Non-Immunodominant Domains of VAR2CSA” (PLoS ONE, 2014).

B1: Nb04 (VHH)
VHH: QVQLQESGGGLAQPGGSLRLSCTASGRIYRMAWFRQAPGKERELVASITHIGATNYADSVKGRFTISRDNFKNTMYLQMNDLKPEDTAVYYCNAASSWGKGTQVTVSS
notes: from an alpaca immunized with full-length VAR2CSA; pHEN6c vector; also called Nanobody 04; VHH; source: E. coli WK6, periplasmic extract, purified (HisTrap); not shown: His6, C-terminal, kept
B2: Nb09 (VHH)
VHH: QVQLQESGGGLVQAGGSLRLSCAASGRTFSNYGMGWFRQTPEKERDLLAAVTWSGGRTYYADSVKGRFTISRDNAKNTVYLQMNSLKPEDTAVYYCAAGELFYSDYGPEGEWDYWGQGTQVTVSS
notes: from an alpaca immunized with full-length VAR2CSA; pHEN6c vector; also called Nanobody 09; VHH; source: E. coli WK6, periplasmic extract, purified (HisTrap); not shown: His6, C-terminal, kept

Key:
[1] = target: T1, full-length VAR2CSA (FV2) recombinant protein, FCR3 (Plasmodium falciparum FCR3, UniProt Q6UDW7, strain); experiment: ELISA; recombinant VAR2CSA protein or domain (50 nM in PBS) coated on MaxiSorp plates overnight at 4°C; Nb 50 nM in 1% skim milk in PBS, 90 min RT; detected with rabbit anti-camel and HRP anti-rabbit, OD 490 nm after 20 min; settings: both partners purified
T1 construct: VAR2CSA (PfEMP1 family), Plasmodium falciparum strain FCR3, full-length recombinant protein; also called FV2-FCR3; source: recombinant, purified, expressed as described in [33]

[2] = target: T2, VAR2CSA DBL6 domain, baculovirus-produced (Plasmodium falciparum FCR3, UniProt Q6UDW7, strain); experiment: as above; settings: both partners purified
T2 construct: DBL6 domain; also called DBL6ε; source: baculovirus expression system, as described in [11], [20]

[3] = target: T3, native VAR2CSA on the surface of NF54 infected erythrocytes (Plasmodium falciparum NF54 (VAR2CSA …, UniProt Q8I639, strain)); experiment: flow cytometry on cells; late stage VAR2CSA-expressing IE (FCR3, 7201, NF54) incubated with Nb (0,1 mg/ml), 30 min at 4°C; detected with mouse anti-penta-His and FITC anti-mouse; specific recognition defined by an MFI ratio >1.2; settings: one partner purified
T3 construct: VAR2CSA of the P. falciparum parasite line NF54, native protein on infected erythrocytes; also called VAR2CSA-expressing IE (NF54); source: endogenous, on P. falciparum NF54-infected erythrocytes

[4] = target: T4, VAR2CSA DBL3 domain, baculovirus-produced (Plasmodium falciparum FCR3 (implied), UniProt Q6UDW7, strain); experiment: ELISA; recombinant VAR2CSA protein or domain (50 nM in PBS) coated on MaxiSorp plates overnight at 4°C; Nb 50 nM in 1% skim milk in PBS, 90 min RT; detected with rabbit anti-camel and HRP anti-rabbit, OD 490 nm after 20 min; settings: both partners purified
T4 construct: DBL3 domain; also called DBL3X; source: baculovirus expression system, as described in [11], [20]

[5] = target: T5, ID1–ID2a minimal CSA-binding region of VAR2CSA, baculovirus-produced (Plasmodium falciparum FCR3, UniProt Q6UDW7, strain); experiment: as above; settings: both partners purified
T5 construct: VAR2CSA, P. falciparum FCR3; ID1–ID2a region encompassing DBL2X with the flanking parts ID1 and ID2; also called ID1–ID2a (BV); source: baculovirus expression system, as described in [11], [20]

[6] = target: T6, DBL1-ID2a protein of VAR2CSA (containing minimal CSA-binding region), baculovirus-produced (Plasmodium falciparum FCR3 (assumed for …, UniProt Q6UDW7, strain)); experiment: far-Western, overlay or dot blot; Western blot: recombinant VAR2CSA domain (0,4 µg/lane) run NON-REDUCED on SDS gel, blotted to nitrocellulose, probed with 50 nM Nb in TBST; rabbit anti-camel and HRP anti-rabbit; settings: both partners purified
T6 construct: DBL1-ID2a; source: baculovirus-produced

[7] = target: T7, DBL1-ID2a of VAR2CSA of the heterologous 3D7 parasite line (Plasmodium falciparum 3D7, UniProt Q8I639, strain); experiment: ELISA; recombinant VAR2CSA protein or domain (50 nM in PBS) coated on MaxiSorp plates overnight at 4°C; Nb 50 nM in 1% skim milk in PBS, 90 min RT; detected with rabbit anti-camel and HRP anti-rabbit, OD 490 nm after 20 min; settings: both partners purified
T7 construct: VAR2CSA, P. falciparum strain 3D7; also called 3D7 DBL1-ID2a; source: baculovirus expression system

[8] = target: T8, ID1–ID2a of VAR2CSA of the heterologous 3D7 parasite line (Plasmodium falciparum 3D7, UniProt Q8I639, strain); experiment: as above; settings: both partners purified
T8 construct: VAR2CSA, P. falciparum strain 3D7; also called 3D7 ID1–ID2a; source: baculovirus expression system

[9] = target: T9, ID1–ID2a minimal CSA-binding region of VAR2CSA, produced in Schneider 2 (S2) cells (Plasmodium falciparum FCR3, UniProt Q6UDW7, strain); experiment: as above; settings: both partners purified
T9 construct: ID1–ID2a region; also called ID1–ID2a (S2); source: Schneider 2 (S2) cells

[10] = target: T10, ID1–ID2a minimal CSA-binding region of VAR2CSA, produced in E. coli (Plasmodium falciparum FCR3, UniProt Q6UDW7, strain); experiment: as above; settings: both partners purified
T10 construct: ID1–ID2a region; also called ID1–ID2a (coli); source: E. coli

[11] = target: T2, VAR2CSA DBL6 domain, …; experiment: as above; settings: both partners purified; remark: listed apart in the source

Binder | binding result [1] | binding result [2] | binding result [3] | binding result [4] | binding result [5] | binding result [6] | binding result [7] | binding result [8] | binding result [9] | binding result [10] | binding result [11]
B1 | binds | binds | binds | no binding (tested: 50 nM) |  |  |  |  |  |  | 
B2 | binds |  | binds | no binding (tested: 50 nM) | binds | binds | binds | binds | binds | binds | no binding (tested: 50 nM)
